{"source": "patent US20130137856A1", "about": "(published 2013)", "key": {"[1]": {"molecular_target": "full-length human β2AR in commercial insect cell-derived membranes (human, UniProt P07550 1-413)", "assay": "cell-based or functional assay"}, "[2]": {"molecular_target": "β2AR truncated after amino acid 365 (β2AR-365) having an amino terminal Flag epitope tag, native, … (human, UniProt P07550 1-365)", "assay": "cell-based or functional assay"}}, "data": [{"binder": "Nanobody-80 (Nb80) (VHH, not shown: small tags and cut ends) VHH: QVQLQESGGGLVQAGGSLRLSCAASGSIFSINTMGWYRQAPGKQRELVAAIHSGGSTNYANSVKGRFTISRDNAANTVYLQMNSLKPEDTAVYYCNVKDYGAVLYEYDYWGQGTQVTVSS", "values": [{"measurement": "Potency shift of CGP12177A (antagonist): IC50 with irrelevant Nb / IC50 with 500 nM Nb80, 3H-DHA competition", "setting": "[1]", "result": 1, "unit": "ratio"}, {"measurement": "Potency shift of ICI118,551 (inverse agonist): IC50 with irrelevant Nb / IC50 with 500 nM Nb80, 3H-DHA competition", "setting": "[1]", "result": 0.9, "unit": "ratio"}, {"measurement": "Potency shift of alprenolol (antagonist): IC50 with irrelevant Nb / IC50 with 500 nM Nb80, 3H-DHA competition", "setting": "[1]", "result": 1.1, "unit": "ratio"}, {"measurement": "Potency shift of carvedilol (antagonist): IC50 with irrelevant Nb / IC50 with 500 nM Nb80, 3H-DHA competition", "setting": "[1]", "result": 1.2, "unit": "ratio"}, {"measurement": "Potency shift of dobutamine (partial agonist): IC50 with irrelevant Nb / IC50 with 500 nM Nb80, 3H-DHA competition", "setting": "[1]", "result": 2.3, "unit": "ratio"}, {"measurement": "Potency shift of fenoterol (full agonist): IC50 with irrelevant Nb / IC50 with 500 nM Nb80, 3H-DHA competition", "setting": "[1]", "result": 3.7, "unit": "ratio"}, {"measurement": "Potency shift of formoterol (agonist): IC50 with irrelevant Nb / IC50 with 500 nM Nb80, 3H-DHA competition", "setting": "[1]", "result": 4, "unit": "ratio"}, {"measurement": "Potency shift of isoproterenol (agonist): IC50 with irrelevant Nb / IC50 with 500 nM Nb80, 3H-DHA competition", "setting": "[1]", "result": 8.8, "unit": "ratio"}, {"measurement": "Potency shift of metaproterenol (agonist): IC50 with irrelevant Nb / IC50 with 500 nM Nb80, 3H-DHA competition", "setting": "[1]", "result": 2.9, "unit": "ratio"}, {"measurement": "Potency shift of procaterol (agonist): IC50 with irrelevant Nb / IC50 with 500 nM Nb80, 3H-DHA competition", "setting": "[1]", "result": 2.3, "unit": "ratio"}, {"measurement": "Potency shift of ritodrine (agonist): IC50 with irrelevant Nb / IC50 with 500 nM Nb80, 3H-DHA competition", "setting": "[1]", "result": 2.7, "unit": "ratio"}, {"measurement": "Potency shift of salbutamol (partial agonist): IC50 with irrelevant Nb / IC50 with 500 nM Nb80, 3H-DHA competition", "setting": "[1]", "result": 4.2, "unit": "ratio"}, {"measurement": "Potency shift of salmeterol (full agonist): IC50 with irrelevant Nb / IC50 with 500 nM Nb80, 3H-DHA competition", "setting": "[1]", "result": 3.3, "unit": "ratio"}, {"measurement": "Potency shift of terbutaline (partial agonist): IC50 with irrelevant Nb / IC50 with 500 nM Nb80, 3H-DHA competition", "setting": "[1]", "result": 4.3, "unit": "ratio"}, {"measurement": "Potency shift of timolol (antagonist): IC50 with irrelevant Nb / IC50 with 500 nM Nb80, 3H-DHA competition", "setting": "[1]", "result": 0.6, "unit": "ratio"}]}, {"binder": "Nb65 (VHH, not shown: small tags and cut ends) VHH: QVQLQESGGGLVQAGGSLRLSCAASGSIFSINTMGWYRQAPGKQRELVAAIHSGGSTNYADSVRGRFTISRDNAKNTVYLQMNSLKPEDTAVYYCNVKDYGAVLYEYDYWGQGTQVTVSS", "values": [{"measurement": "Isoproterenol Ki, [3H]-DHA competition binding on Sf9 membranes in the presence of 1 µM nanobody (β2AR alone: 295)", "setting": "[2]", "result": 13.8, "unit": "nM"}]}, {"binder": "Nb67 (VHH, not shown: small tags and cut ends) VHH: QVQLQESGGGLVQAGGSLRLSCAASGTISSFIAMGWYRQSPGKQRELVAGITSGGETNYEDSVKGRFTISRDNAKNTLYLQMNTLKPEDTAVYYCNAQVFADIFNLINYWGQGTQVTVSS", "values": [{"measurement": "Isoproterenol Ki, [3H]-DHA competition binding on Sf9 membranes in the presence of 1 µM nanobody (β2AR alone: 295)", "setting": "[2]", "result": 19.4, "unit": "nM"}]}, {"binder": "Nb71 (VHH, not shown: small tags and cut ends) VHH: QVQLQESGGGLVQPGGSLRLSCAASGFAFSSYELRWYRQAPGKQHELVAGITTGGNTYYADSVKGRFTISRDNAKNTVYLQMSNLRPEDTAVYACNANWDLLSDYWGQGTQVTVSS", "values": [{"measurement": "Isoproterenol Ki, [3H]-DHA competition binding on Sf9 membranes in the presence of 1 µM nanobody (β2AR alone: 295)", "setting": "[2]", "result": 10.6, "unit": "nM"}]}]}
